Reference: patent US20170348438A1 (CASE WESTERN RESERVE UNIVERSITY, published 2017)
Positions of bridges follow the written chain, without caps; N, C: chain ends. Primed or numbered codes have the meaning given here. No end group written: not given here. PEG3′ = not defined here

B1: M13 phage displaying MTP10 (ACRPKNNHSC) (peptide)
peptide: ACRPKNNHSC
modifications: disulfide 2-10 (inferred); also: displayed on M13 phage coat protein fusion
notes: Tested as whole phage in the ELISA; cyclic library; not shown: rest of the M13 coat protein fusion of the Ph.D.-C7C library (New England Biolabs); not described
B2: M13 phage displaying MTP2 (ASSHIHH) (peptide)
peptide: ASSHIHH
notes: Tested as whole phage in the ELISA; not shown: rest of the M13 coat protein fusion of the Ph.D.-7 library (New England Biolabs); not described
B3: M13 phage displaying MTP5 (ACNSHRHGAC) (peptide)
peptide: ACNSHRHGAC
modifications: disulfide 2-10 (inferred); also: displayed on M13 phage coat protein fusion
notes: as for B1
B4: M13 phage displaying MTP6 (ACNSVHQHHC) (peptide)
peptide: ACNSVHQHHC
modifications: disulfide 2-10 (inferred); also: displayed on M13 phage coat protein fusion
notes: as for B1
B5: M13 phage displaying MTP9 (ACPTGLHHAC) (peptide)
peptide: ACPTGLHHAC
modifications: disulfide 2-10 (inferred); also: displayed on M13 phage coat protein fusion
notes: as for B1
B6: M13 phage displaying MTP3 (HNHMADP) (peptide)
peptide: HNHMADP
notes: as for B2
B7: M13 phage displaying MTP7 (ACYGKPEHHC) (peptide)
peptide: ACYGKPEHHC
modifications: disulfide 2-10 (inferred); also: displayed on M13 phage coat protein fusion
notes: as for B1
B8: M13 phage displaying MTP4 (ACKAPAHHHC) (peptide)
peptide: ACKAPAHHHC
modifications: disulfide 2-10 (inferred); also: displayed on M13 phage coat protein fusion
notes: as for B1
B9: M13 phage displaying MTP8 (ACPHHPQKHC) (peptide)
peptide: ACPHHPQKHC
modifications: disulfide 2-10 (inferred); also: displayed on M13 phage coat protein fusion
notes: as for B1
B10: His-tagged MRP-14 (other)
chain: MTCKMSQLERNIETIINTFHQYSVKLGHPDTLNQGEFKELVRKDLQNFLKKENKNEKVIEHIMEDLDTNADKQLSFEEFIMLMARLTWASHEKMHEGDEGPGHHHKPGLGEGTP
notes: Commercial His-tagged protein, captured on a Ni-NTA chip for SPR and coated on plates for the phage ELISA; The position of the His tag is unknown; its order in the chain is arbitrary; not shown: His tag
B11: Scrambled peptide MDPHAHNGGGS (peptide)
peptide: MDPHAHNGGGS-NH2
notes: Synthetic control peptide with a GGGS spacer; also called scrambled control
B12: M13 phage displaying MTP1 (TTFHHHK) (peptide)
peptide: TTFHHHK
notes: as for B2

Tests used:
His-tagged MRP-14 [1] = target: B10; experiment: SPR, His-tagged MRP-14 on Ni-NTA chip, saturation binding curve fit
bovine serum albumin = target: T1, bovine serum albumin (bovine, UniProt P02769 25-607); experiment: phage ELISA on BSA-blocked wells, HRP anti-M13 antibody, ABTS, absorbance 410 nm
T1 construct: Background control in the phage ELISA; also called BSA

[2] = target: T2, MRP-8/14 heterodimer (untagged MRP-8 premixed 1:1 with His-tagged MRP-14) (UniProt P05109 1-93; P06702 1-114); experiment: SPR, MRP-8/14 held on Ni-NTA chip by the His tag of MRP-14, saturation binding curve fit; MRP-8/14 heterodimer on the chip, not MRP-14 alone
T2 construct: Formed by mixing equal molar amounts for 3 hours with 0.1 mM CaCl2; only MRP-14 has a His tag; not shown: His tag
T2 sequence 1: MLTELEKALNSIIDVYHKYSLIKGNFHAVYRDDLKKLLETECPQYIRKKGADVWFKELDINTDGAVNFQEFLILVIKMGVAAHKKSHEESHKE
T2 sequence 2: B10 chain

[3] = target: T3, TMV-MTP6 (tobacco mosaic virus particle displaying MTP6) (tobacco mosaic virus, UniProt P69687 2-159, alkyne handle (3-ethynylaniline diazonium) on exterior tyrosine residues; about 20% of the coat proteins carry MTP6; C-terminal 3-monomer PEG spacer and azide, joined by CuAAC to an alkyne on …); experiment: SPR, His-tagged MRP-14 on Ni-NTA chip, kinetic curve fit, concentration as MTP6 peptide
T3 construct: Whole virus nanoparticle (with its RNA) with about 400 MTP6 peptides on 2130 coat proteins

[4] = target: T3, TMV-MTP6 (tobacco mosaic virus particle …); experiment: SPR, His-tagged MRP-14 on Ni-NTA chip, kinetic curve fit
His-tagged MRP-14 [5] = target: B10; experiment: SPR, His-tagged MRP-14 on Ni-NTA chip, peptide injected

T1 sequence (P02769 25-607 limits assumed): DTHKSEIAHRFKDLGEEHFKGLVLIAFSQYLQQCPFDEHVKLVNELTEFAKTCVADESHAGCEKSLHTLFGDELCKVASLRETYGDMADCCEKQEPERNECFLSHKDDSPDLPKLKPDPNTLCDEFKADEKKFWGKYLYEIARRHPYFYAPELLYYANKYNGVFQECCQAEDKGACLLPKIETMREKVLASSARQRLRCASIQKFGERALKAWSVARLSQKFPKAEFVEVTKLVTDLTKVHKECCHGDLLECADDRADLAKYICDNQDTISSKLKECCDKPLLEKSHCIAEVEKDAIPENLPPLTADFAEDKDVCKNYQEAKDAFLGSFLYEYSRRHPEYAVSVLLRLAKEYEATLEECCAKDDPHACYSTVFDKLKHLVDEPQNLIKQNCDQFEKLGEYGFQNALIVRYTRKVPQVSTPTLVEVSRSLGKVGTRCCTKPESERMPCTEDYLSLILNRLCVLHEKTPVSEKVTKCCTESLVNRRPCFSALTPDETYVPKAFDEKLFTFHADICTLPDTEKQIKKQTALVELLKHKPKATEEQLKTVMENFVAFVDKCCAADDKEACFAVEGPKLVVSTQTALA
T3 sequence (P69687 2-159): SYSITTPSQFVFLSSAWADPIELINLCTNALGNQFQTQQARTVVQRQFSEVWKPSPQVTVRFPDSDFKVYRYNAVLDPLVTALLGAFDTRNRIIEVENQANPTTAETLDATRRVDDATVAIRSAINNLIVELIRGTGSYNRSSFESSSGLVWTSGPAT

For ACNSVHQHHCGGGS-{PEG3′-azide} (disulfide 2-10 (inferred)) [MTP6-N3 (azide-functionalized MTP6)], the Kd (His-tagged MRP-14 [1]) was 55.7 µM.

B1: no binding (tested: 2.5E+11 pfu/mL) (bovine serum albumin).

Work on ACNSVHQHHCGGGS-NH2 (disulfide 2-10 (inferred), lead peptide) [MTP6 synthetic peptide ACNSVHQHHCGGGS] yielded a Kd (His-tagged MRP-14 [1]) of 39.6 µM and a Kd [2] of 57.6 µM.

B2: no binding (tested: 2.5E+11 pfu/mL) (bovine serum albumin).

B3: no binding (tested: 2.5E+11 pfu/mL) (bovine serum albumin).

B4: no binding (tested: 2.5E+11 pfu/mL) (bovine serum albumin).

B5: no binding (tested: 2.5E+11 pfu/mL) (bovine serum albumin).

HNHMADPGGGS-NH2 [MTP3 synthetic peptide HNHMADPGGGS] gave a Kd (His-tagged MRP-14 [1]) of 117 µM.

B6: no binding (tested: 2.5E+11 pfu/mL) (bovine serum albumin).

For ASSHIHHGGGS-NH2 [MTP2 synthetic peptide ASSHIHHGGGS], the Kd (His-tagged MRP-14 [1]) was 77.6 µM.

B7: no binding (tested: 2.5E+11 pfu/mL) (bovine serum albumin).

B8: no binding (tested: 2.5E+11 pfu/mL) (bovine serum albumin).

B9: no binding (tested: 2.5E+11 pfu/mL) (bovine serum albumin).

With B10 the Kd [3] was 0.754 µM, the koff [4] was 0.000686 s⁻¹ and the kon [4] was 910 M⁻¹ s⁻¹.

B11: no binding (tested: 6.25 µM to 100 µM) (His-tagged MRP-14 [5]).

B12: no binding (tested: 2.5E+11 pfu/mL) (bovine serum albumin).
